# Results taken from the domain aggregation screens of Martell et al. (2025).
# Assay: soluble fraction after stress (log2 fold change); higher = more stays soluble; pooled small domains, quantitative proteomics
# Conditions: stress: 50 degC
# In short: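 Pooled custom libraries of small protein domains were each held under stress at 50°C. The read-out, high-throughput quantitative proteomics, tracked how much of each protein stayed soluble. This is reported as a base-two log fold change used to indicate aggregation propensity. Higher values mean more protein remains in solution.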
row,Sequence,soluble fraction (log2)
1,HMPNIQLARNLKYLRLAYGLTQDDLGAFLNISRQAYSNYENLKRSPDLDSLIRLASLYHLSLDDLVSR,-3.09
2,HMFGEDNLKSKEIKERVTEVAKHADDPVWIEARRKWKDENPDQNVKDYQQAYISGRIHELPWDVSYI,0.142
3,HMIVDINDVRIDKYIADNTDYSRNLILNLIKNGDILVNDSKIKPSYKVKQGDKITINNVKTD,0.227
4,HMSASTGTVSYKSGATTVWNSPSWHQVKRYVTFGDTVQLLGKTVDQNGATWYKVGDNQWIPELYLNVAG,-0.508
5,HMDSALKDDLNAFVKKLDVESQTLFMRRYFLGESVSSLASRFEMSEDNVGVKLFRIRAKLKKYLTGKGYD,-2.28
6,HMRGSRIFSGDVSPLTLPANSPFFSGYTEFKPGDVYVERSATNIAMWEWKSQPGGYTWVKTADIA,-0.169
7,HMNLTSNDAYSRILNAIITSELRPGDTVTEIQLAQKFGFGRTPVREAIMRLENEGFIVSAERKKRVYIL,-2
8,HMSGTMYATAEVNVRSTYSSDGTIYGTLSKGTAVEITGTTDNGWVRVKYNGTTAYVYADYLSWKAP,-0.671
9,HMSFSSLSNDILSEIQKDNNITYDELSEKLQKDRATIYRNMKKLVENGLLKRVGGRKSGHWEIIE,0.189
10,HMESNWLTYAKRIQSIADTGMTFAVDDFDKERYQELADISSKMLADLSNIPIGRIENLLGPLGQ,-0.75
11,HMSSQVFLGQKNSIAKYDLNENKPIWTKEIKGTPLILSTWKDMLLIQIQTWVSYTHMLVKQENGQTVWE,0.318
12,HMSRIDRKGLTSQIVNHLSKNPGKNFTLKQFFRNLKLNTHPLKMLAVDVLNKLLDTNFITRNEDGEFFLKA,0.337
13,HMRDTLSKQLLTEEMVLQFIREMREHDPGIGGEKLHAMYLGRFGRDYEYMVGRDKMEMIIAENNLNVR,-0.736
14,HMINITALVKQLGGVDISKFNSAFKLLQQGKPLNTISNKVMADTFVALMKNSDEALNTKFRAAFKKI,-0.272
15,HMGLKWVYYTNIEPDGNKINNQKLYDILKQKFVYPVIISRDELDSMELKDLTYDSYIDVEGRYFKPYNLD,-2.23
16,HMGVGIEALAVEVDRIRQVLTGGGALSDIQLFSQLKALGEVKTALSSMTDPRARELEKRVAQLLEASLRT,-0.0594
17,HMRTTYKTRLETLLAGPMSAGDRRFASSLLDFYNRKNRLTPGRARFVAQLEDRYSAEALAARQG,-0.961
18,HMPHFGVVLQMDDWKTLRDRLEARDDIDWVMKPNLRFEGQPGEQATLFIRDPSGNALEFKGFADLSQVF,-0.348
19,HMGIRAFDPEAFDERLKEFFSMIAPYKKLDTRSLQPHFPHHAKEVAERIRQLAEAGKIKVDGFYISEL,-0.108

row,Sequence,soluble fraction (log2)
1,HMTYTPRAGSLASQVIGFFRHNPDEELLLDDITDKFDATRGNIHTLLAEAVRFKLLARYRNDDGDYVYKPG,-2.97
2,HMIDVGSKIRSLRKSKNISISTLAKNSDLSTGLISQIERNMVVPSIVAMWKISKALDINIGYFFE,-2.42
3,HMELPSDEHLDDISHLARIGHKKGLQEKIIQLEQQGLASAEFIQQLKTLTNNFQFEKIIQWVDSEL,-0.0426
4,HMNSNLSLTSYEEKIFFLLEKEKNLDELILESSFKAGEILSILMDLEIKHAIVSIPGGKYRRK,-2.84
5,HMTKIKAIFFDIDGTIRSFKTKTIPENTANTLKKLKEQGIKIFIATGRAPFHTTFLNDLLDFKFDGYITIN,-0.282
6,HMVIREVNDNPVSAEELRLGDRVKVLSLGQNGEIVTLPDEKGELTVQVGILKAKVNLDDIMLI,0.0226
7,HMSWEDSLLKQAREIIDMYPQKRSAVGPLLHLAQSKDGYISDDSISVISKLVGITEVQLKSVSTFYSMYK,-1.59
8,HMVSFSIDEALVSAVKGPRSANVMSIQRQFLVRLSVERDGRVTITGANSKSVQQAREAVEAAVEEAKLHP,-0.827
9,HMLSYFKIIKNGLVREGPASYYKIAENLEIGTIVQAFEKHDDWYLIKTHSGRIGWIVASDVTPQV,-0.245
10,HMGLPAWVPQNYIDRVTAIYDYSADKDDELTFNEGSTIFVLKKNDDGWWEGVMDGVTGLFPGNYVEAT,-0.8
11,HMTNALDMMKTMDSDAYTKYQKISKESSNEDRQLNELKYITNWYAGAVKKNPSMVDDYEKQKEADS,0.159
12,HMSEQLHALIDRLDDIPDDELKKNWPGTLRDLVDVISAELHRQGIEPAQAGMLARKVAAAQAGYMG,-0.344
13,HMISKRFQIDEDNSNKRIDIFLTQSLDSISRGIVQQLILENKVEVNGGPVKRNYLIKIGDVIDVKIDL,-0.939
14,HMLEIRGFTVLLSDRGIVGIIEEIIQNPGQDLLRILSPEKREILVPLHSDLITGINKKKKTITMNLPDGL,-0.465
15,HMDPLASLTPREREVLSLMAQGLSNLAVAERLVVSAGAVEKHISSIFTKLDLAPSEHEHRRVLAVLRYVAG,-3.2
16,HMVDDELTARRRVNLRRIADELGGAAAVARKTQKSVQQISSMLNGTKSFGSKIARDIEPKLGLPLQSLDKE,0.128
17,HMGGTFLVRILDPALNIRAQPSLTARINGVIRDKSVYTIVATSFEPKTQITWGKLKSGAGWISIGSKYVKK,-3.52
18,HMRDISTDTSAWTFQDIKRYYDPQDLLTEKQVGQALSLIKGRNLNPLLNEVYIVAYKKKNGGAEFSLIV,-0.28
